pKd: −log10 of the molar value. Like-named read-outs stand apart in the source and are kept apart here. Each block holds one substance with its values, some of them ahead of it.
Tests used:
[1] = test system: Pompe fibroblasts and skeletal muscle myoblasts; assay: Internalization by Pompe fibroblasts and skeletal muscle myoblasts; assay type: cell-based
[2] = Clinical study: ALT, AST and CPK biomarkers; assay type: in vivo, human
Experimental: Alanine aminotransferase (ALT), aspartate aminotransferase (AST) and creatine phosphokinase (CPK) levels were monitored in human patients that switched from Lumizyme® to ATB200. The patients received ascending doses of ATB200 (5, 10 and 20 mg/kg) followed by co-administration of ATB200 (20 mg/kg) and miglustat (130 and 260 mg). High levels of CPK enzyme may indicate injury or stress to muscle tissue, heart, or brain. Elevated ALT and AST are markers of liver and muscle damage from Pompe disease, respectively.

[3] = in vivo, iv, 100 mg/kg
[4] = human, in vivo
Text: The study will be conducted in 2 stages.
This stage will include: • Safety: review of AEs, including serious adverse events (SAEs) and IARs; review of concomitant medications and nondrug therapies; vital signs (HR, RR, BP, and temperature); brief PE; ECG; clinical safety laboratory assessments (serum chemistry, hematology, and urinalysis); and urine pregnancy test • PD: urinary Hex4 and serum CPK • Immunological: blood samples for anti-recombinant acid α-glucosidase antibody titers (anti-recombinant acid α-glucosidase total and neutralizing antibody titers and antibody cross-reactivity with alglucosidase alfa) and blood samples for measurement of pro-inflammatory cytokines and other biomarkers of immune system activation. If needed, IgE measurements will also be performed. • Serial 24-hour pharmacokinetics (PK): During Period 1 (Visit 3, Day 1), Period 2 (Visit 4, Day 15), and Period 3 (Visit 5, Day 29), blood sampling for plasma acid α-glucosidase activity levels and total acid α-glucosidase protein concentrations will be taken for all subjects.
• Safety: review of AEs, including SAEs and IARs; review of concomitant medications and nondrug therapies; vital signs (HR, RR, BP, and temperature); weight; PE; ECG; clinical safety laboratory assessments (serum chemistry, hematology, and urinalysis); and urine pregnancy test • PD: urinary Hex4 and serum CPK • Immunological: blood samples for anti-recombinant acid α-glucosidase antibody titers (anti-recombinant acid α-glucosidase total and neutralizing antibody titers, and antibody cross-reactivity with alglucosidase alfa) and blood samples for measurement of pro-inflammatory cytokines and other biomarkers of immune system activation. If needed, IgE measurements will also be performed. • Serial 24-hour PK: During Period 4 (Visit 6, Day 43 and Visit 8, Day 71) and Period 5 (Visit 9, Day 85 and Visit 11, Day 113), blood sampling for plasma acid α-glucosidase activity levels, total acid α-glucosidase protein concentrations, and miglustat concentrations will be taken for all subjects. […]

CIMPR [5] = target: T1, CIMPR (Homo sapiens, UniProt P11717); assay: CIMPR plate binding assay
Experimental: Briefly, CIMPR-coated plates were used to capture GAA. Varying concentrations of rhGAA were applied to the immobilized receptor and unbound rhGAA was washed off. The amount of remaining rhGAA was determined by GAA activity.

[6] = in vivo
Experimental: Pharmacokinetic data for acid α-glucosidase (ATB200), including sampling times, dosing history and plasma concentrations of acid α-glucosidase, is obtained from mice, rats and monkeys administered ATB200 by intravenous injection. […] Modeling and simulations are performed using Phoenix® NLME™ v1.3. Compartmental PK models are constructed to assess the PK of ATB200 in plasma. The models include: • Description of the relationships between plasma concentration and time; • A variance component characterizing between- and within-animal variability in model parameters; and • A component describing uncertainty in the state of knowledge about critical model components.
PK is assumed to be species independent and is scaled according to a generalized Dedrick approach that scales the disposition according to the power of an animal's body weight:
where CL=systemic clearance, V=volume of distribution, BW=body weight, p=peripheral, b and d=allometric exponents, and a and c=typical values for a BW=1. […] Nominal BW (0.025, 0.25 and 2.5 kg) are used in the analyses.
The model includes a theoretical allometric component accounting for difference in body weight across animal species on clearance (CL) and volume of distribution (Vc).

cynomolgus monkeys = assay: 13-week toxicity study in cynomolgus monkeys; conditions: once every other week for 13 weeks
Experimental: Animals were acclimated to the study room for 18 (females) to 19 (males) days. On the final day of acclimation, animals weighed between 2.243 kg and 5.413 kg and were 2 to 3 years of age.
ATB200 is formulated in 25 mM sodium phosphate buffer, pH 6 containing 2.92 mg/mL sodium chloride, 20 mg/mL mannitol, and 0.5 mg/mL polysorbate 80 (formulation buffer). Test article (ATB200 or miglustat) and control article/vehicle (formulation buffer) were administered once every other week for 13 weeks, starting on Day 1 and ending on Day 85. ATB200 and the control article/vehicle were administered by 2 hour (±10 minute) intravenous (IV) infusion at 0 mg/kg (Group 1, control article), 50 mg/kg (Group 2), or 100 mg/kg (Groups 3 and 5). Miglustat was administered nasogastrically in sterile water for injection, USP, at 25 mg/kg (Group 2) or 175 mg/kg (Groups 3 and 4), 30 minutes (±2 minutes) prior to the start of the infusion for ATB200, when given in combination. The dosing volume across all groups was 10 mL/kg.
Parameters assessed during the in-life phase of the study included body weights, food consumption, clinical observations, detailed clinical observations, physical examinations, electrocardiography, ophthalmic assessments, clinical pathology (hematology, coagulation, serum chemistry), anti-drug antibody (ADA) assessment, neutralizing ADA assessment, urinalysis, and plasma toxicokinetics (TK) for miglustat and ATB200 activity and total protein. Terminal necropsy of animals was performed on Day 99 (14 days after the last dose administration). At necropsy, gross observations and organ weights were recorded, and tissues were collected for microscopic examination.

[7] = test system: normal and Pompe fibroblast cell lines; assay: Cellular uptake of rhGAA in fibroblasts; assay type: cell-based; conditions: for concentration that saturates cellular receptors: 16-hr incubation
Experimental: The relative cellular uptake of ATB200 and Lumizyme® rhGAA were compared using normal and Pompe fibroblast cell lines. Comparisons involved 5-100 nM of ATB200 rhGAA according to the invention with 10-500 nM conventional rhGAA Lumizyme®. After 16-hr incubation, external rhGAA was inactivated with TRIS base and cells were washed 3-times with PBS prior to harvest. Internalized GAA measured by 4MU-α-Glucoside hydrolysis and was graphed relative to total cellular protein and the results appear in FIGS. 10A-B.

Gaa knockout mice [8] = assay: Muscle physiology and morphology in Gaa-knockout mice; assay type: in vivo, mouse; conditions: 20 mg/kg rhGAA IV every other week, miglustat 10 mg/kg oral where co-administered
[9] = in vivo; remark: listed apart in the source
Gaa knockout mice [10] = assay: Exposure-response: glycogen levels in Gaa knockout mice
Experimental: Gaa knockout mice are administered acid α-glucosidase (ATB200) intravenously at doses of 5, 10 and 20 mg/kg, rising oral doses of miglustat (1, 3 and 10 mg/kg) concomitantly with intravenous doses of 5 or 10 mg/kg of ATB200 or rising oral doses of miglustat (1, 3, 5, 10, 20, and 30 mg/kg) concomitantly with intravenous doses of 20 mg/kg of ATB200.

[11] = human, in vivo; remark: listed apart in the source
Experimental: This is an open-label, fixed-sequence, ascending-dose, first-in-human study to evaluate the safety, tolerability, and pharmacokinetics (PK) of intravenous (IV) recombinant acid α-glucosidase (ATB200, lyophilized powder reconstituted with sterile water for injection and diluted with 0.9% sodium chloride for injection) alone and when co-administered with oral miglustat (hard gelatin capsules, 65 mg). The study will be conducted in 2 stages. In Stage 1, safety, tolerability, and PK will be evaluated following sequential single ascending doses of ATB200, administered every 2 weeks as an approximately 4 hour intravenous infusion, for 3 dosing periods at 5, 10, and 20 mg/kg. In Stage 2, safety, tolerability, and PK will be evaluated following single- and multiple-ascending dose combinations: 20 mg/kg ATB200 co-administered every 2 weeks with 130 mg miglustat (two 65 mg capsules), taken orally 1 hour prior to an approximately 4 hour intravenous infusion of ATB200, for 3 doses followed by 20 mg/kg ATB200 co-administered with 260 mg miglustat (four 65 mg capsules), taken orally 1 hour prior to an approximately 4 hour intravenous infusion of ATB200, for 3 doses.

Gaa knockout mice [12] = assay: Glycogen clearance, ATB200 vs Lumizyme, two IV bolus administrations; assay type: in vivo, mouse; conditions: ATB200 10 and 20 mg/kg; skeletal muscles
Text: Animals are given two IV bolus administrations (every other week); tissues are harvested two weeks after the last dose and analyzed for acid α-glucosidase activity and glycogen content.

[13] = cynomolgus monkey, in vivo
Experimental: ATB200 toxicokinetics were measured in blood samples collected in K2EDTA tubes from animals on Days 1 and 85 at the following time points: • For Groups 1, 2, 3, and 5: Predose (prior to administration of miglustat); 1 hour from initiation of infusion; 2 hours from initiation of infusion; 2.5 hours from initiation of infusion; 3 hours from initiation of infusion; 4 hours from initiation of infusion; 6 hours from initiation of infusion; 12 hours from initiation of infusion; 26 hours from initiation of infusion; 168 hours from initiation of infusion; and 336 hours from initiation of infusion (collected prior to dosing on Day 15); and • For Group 4: Predose (prior to administration of miglustat); 1.5 hour post administration of miglustat; 2.5 hours post administration of miglustat; 3.5 hours post administration of miglustat; 4.5 hours post administration of miglustat; 6.5 hours post administration of miglustat; 12.5 hours post administration of miglustat; 26.5 hours post administration of miglustat; 168.5 hours post administration of miglustat; and 336.5 hours post administration of miglustat (collected prior to dosing on Day 15). […]
Total ATB200 protein was measured by liquid chromatography coupled to tandem mass spectrometry (LC-MS/MS). […]

[14] = cynomolgus monkey, in vivo; remark: listed apart in the source
Experimental: Total anti-drug antibody (ADA) and neutralizing antibody (NAb) levels are measured in plasma. Blood samples (approximately 1.6 mL) were collected in K2EDTA tubes from all animals once during acclimation, predose (prior to administration of miglustat) and on Days 1, 85 and 99. Samples were maintained on wet ice until processed. Plasma was obtained by centrifugation at 2° C. to 8° C. and aliquots (approximately 0.2 mL) were transferred to polypropylene vials, and stored frozen at −60° C. to −86° C. within one hour from blood collection. Analysis of samples for ADA was conducted on samples collected from animals in Groups 1, 2, 3, and 5 (miglustat only samples were not analyzed). Analysis for neutralizing antibodies was conducted using an enzyme assay with the fluorogenic substrate 4-methylumbelliferyl-α-D-glucopyranoside (4MU-Glc).

CIMPR [15] = target: T1, CIMPR; assay: CIMPR affinity chromatography of rhGAA; assay type: binding; conditions: fraction of total enzyme by GAA activity
Experimental: To evaluate the ability of the rhGAA in Myozyme® and Lumizyme®, the only currently approved treatments for Pompe disease, these rhGAA preparations were injected onto a CIMPR column (which binds rhGAA having M6P groups) and subsequently eluted with a free […] gradient. Fractions were collected in 96-well plate and GAA activity assayed by 4MU—α-glucose substrate. The relative amounts of bound and unbound rhGAA were determined based on GAA activity and reported as the fraction of total enzyme.

[16] = cited from earlier work
Gaa KO mice = assay: Muscle function in Gaa KO mice, 12 biweekly administrations; assay type: in vivo, mouse; conditions: 20 mg/kg ERT, 10 mg/kg miglustat, FIGS. 33A-33B
Text: In FIG. 33A, * indicates statistically significant compared to Lumizyme® alone (p<0.05, 2-sided t-test). In FIGS. 34A-34G, * indicates statistically significant compared to Lumizyme® alone (p<0.05, multiple comparison using Dunnett's method under one-way ANOVA analysis).

[17] = one patient, switched from Lumizyme®, ATB200 5, 10, 20 mg/kg then 20 mg/kg + miglustat 130 and 260 mg

T1 sequence (P11717 41-2491, species assumed): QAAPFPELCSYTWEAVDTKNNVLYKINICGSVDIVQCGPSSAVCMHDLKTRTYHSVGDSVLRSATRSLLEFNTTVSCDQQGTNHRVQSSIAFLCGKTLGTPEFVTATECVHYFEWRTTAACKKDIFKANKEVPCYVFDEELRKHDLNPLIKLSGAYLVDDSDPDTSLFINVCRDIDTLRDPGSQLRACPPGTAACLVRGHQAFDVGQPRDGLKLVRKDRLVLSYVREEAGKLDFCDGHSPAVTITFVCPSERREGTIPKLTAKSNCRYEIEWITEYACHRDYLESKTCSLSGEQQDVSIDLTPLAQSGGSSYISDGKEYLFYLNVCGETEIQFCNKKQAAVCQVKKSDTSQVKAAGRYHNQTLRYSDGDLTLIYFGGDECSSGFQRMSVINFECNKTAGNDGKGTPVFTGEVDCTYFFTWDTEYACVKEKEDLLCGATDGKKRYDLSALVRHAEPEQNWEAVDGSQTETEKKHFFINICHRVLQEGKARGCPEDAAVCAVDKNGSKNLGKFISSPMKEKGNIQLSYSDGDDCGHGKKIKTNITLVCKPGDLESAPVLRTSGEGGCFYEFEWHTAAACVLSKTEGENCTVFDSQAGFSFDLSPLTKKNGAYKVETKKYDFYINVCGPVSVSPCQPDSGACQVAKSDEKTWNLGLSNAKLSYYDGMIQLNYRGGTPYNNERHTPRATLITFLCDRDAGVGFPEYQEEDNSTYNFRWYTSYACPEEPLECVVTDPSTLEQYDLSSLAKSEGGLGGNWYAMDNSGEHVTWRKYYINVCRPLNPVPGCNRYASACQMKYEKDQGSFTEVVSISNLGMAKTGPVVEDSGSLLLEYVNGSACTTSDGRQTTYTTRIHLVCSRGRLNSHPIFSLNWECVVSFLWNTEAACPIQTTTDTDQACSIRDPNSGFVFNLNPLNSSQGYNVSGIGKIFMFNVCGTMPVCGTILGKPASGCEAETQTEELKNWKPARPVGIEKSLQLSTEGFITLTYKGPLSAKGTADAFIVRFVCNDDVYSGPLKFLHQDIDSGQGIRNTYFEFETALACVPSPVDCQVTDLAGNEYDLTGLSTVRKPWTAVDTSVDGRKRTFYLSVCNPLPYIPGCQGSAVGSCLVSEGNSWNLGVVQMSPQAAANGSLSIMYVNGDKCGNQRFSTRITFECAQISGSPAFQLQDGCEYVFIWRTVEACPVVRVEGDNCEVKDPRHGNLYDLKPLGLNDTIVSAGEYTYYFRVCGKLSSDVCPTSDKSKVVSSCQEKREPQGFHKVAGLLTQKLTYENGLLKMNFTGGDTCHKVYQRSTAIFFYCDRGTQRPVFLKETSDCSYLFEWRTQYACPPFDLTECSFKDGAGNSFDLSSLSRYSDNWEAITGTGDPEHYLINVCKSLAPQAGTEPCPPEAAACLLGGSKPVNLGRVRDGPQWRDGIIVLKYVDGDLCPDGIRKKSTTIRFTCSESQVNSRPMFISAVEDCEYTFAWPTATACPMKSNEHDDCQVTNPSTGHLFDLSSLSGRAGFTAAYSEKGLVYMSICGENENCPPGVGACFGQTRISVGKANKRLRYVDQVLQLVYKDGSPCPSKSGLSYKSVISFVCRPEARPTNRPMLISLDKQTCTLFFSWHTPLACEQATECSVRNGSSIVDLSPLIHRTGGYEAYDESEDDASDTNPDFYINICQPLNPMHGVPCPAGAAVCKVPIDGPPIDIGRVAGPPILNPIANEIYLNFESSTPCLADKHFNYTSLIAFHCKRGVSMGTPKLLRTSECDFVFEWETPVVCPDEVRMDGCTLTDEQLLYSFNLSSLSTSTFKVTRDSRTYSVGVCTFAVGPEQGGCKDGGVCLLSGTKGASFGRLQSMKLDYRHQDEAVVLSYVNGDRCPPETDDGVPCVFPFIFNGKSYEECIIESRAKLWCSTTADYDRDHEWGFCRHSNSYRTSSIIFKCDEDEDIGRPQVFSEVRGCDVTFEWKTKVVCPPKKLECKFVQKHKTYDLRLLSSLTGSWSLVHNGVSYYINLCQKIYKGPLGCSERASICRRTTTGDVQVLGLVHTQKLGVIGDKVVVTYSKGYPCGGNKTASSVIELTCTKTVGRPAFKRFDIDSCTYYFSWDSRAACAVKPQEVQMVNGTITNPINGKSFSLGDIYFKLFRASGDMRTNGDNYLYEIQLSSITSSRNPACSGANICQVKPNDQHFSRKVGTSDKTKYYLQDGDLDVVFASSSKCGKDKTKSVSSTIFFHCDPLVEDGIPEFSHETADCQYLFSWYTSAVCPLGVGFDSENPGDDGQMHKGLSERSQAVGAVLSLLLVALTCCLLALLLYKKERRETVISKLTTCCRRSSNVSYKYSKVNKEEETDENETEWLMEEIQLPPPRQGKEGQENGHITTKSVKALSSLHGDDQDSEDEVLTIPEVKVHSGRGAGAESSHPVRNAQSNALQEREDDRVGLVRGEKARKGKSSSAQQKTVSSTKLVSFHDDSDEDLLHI

Substance: ATB200
Kupdate (internalization) [1]: 7 to 14 nM
reduction in ALT ([2]; another patient, same regimen): 11%
reduction in AST ([2]; another patient, same regimen): 22%
reduction in CPK ([2]; another patient, same regimen): 31%
reduction in ALT [2, 17]: 34%
reduction in AST [2, 17]: 28%
reduction in CPK [2, 17]: 44%
AUC [3]: 5330 µg·h/mL
Volume of distribution [4]: 3.5 to 5.7 L
dose proportionality of exposures [4]: slightly greater than dose proportional exposures
tmax (median) ([4]; 20 mg/kg): 4.0 h
CIMPR binding compared with Lumizyme® (CIMPR [5]; FIG. 9A): bound to CIMPR significantly better than Lumizyme®
pKd (CIMPR [5]; M6P receptor plate binding assays): 8.40 to 8.70
Central volume of distribution (Vc) [6]: 0.0101 × (BW/0.25)^0.83 L
Peripheral clearance (CLd) [6]: 0.00029 × (BW/0.25)^0.78 L/h
Peripheral volume of distribution (V2) [6]: 0.000653 × (BW/0.25)^0.83 L
Systemic clearance (CL) [6]: 0.00957 × (BW/0.25)^0.78 L/h
test article-related changes (survival, clinical observations, body weight, ECG, clinical pathology, organ weights, histopathology) (cynomolgus monkeys): no changes attributable
No-Observed-Adverse-Effect-Level (NOAEL) (cynomolgus monkeys; 2 hour infusion, with or without miglustat, highest dosage tested): 100 mg/kg/infusion
concentration that saturates cellular receptors [7]: about 20 nM
internalization into normal and Pompe fibroblast cells ([7]; vs Lumizyme®): internalized to a greater degree than conventional Lumizyme® rhGAA
lysosome proliferation (LAMP1) (Gaa knockout mice [8]; FIG. 20): reduction in lysosome proliferation in heart, diaphragm and skeletal muscle (soleus) tissue compared to conventional treatment with alglucosidase alfa
punctate glycogen levels (PAS) (Gaa knockout mice [8]; FIG. 21): reduction in punctate glycogen levels in heart and skeletal muscle (soleus) tissue compared to conventional treatment with alglucosidase alfa
apparent plasma half-life t1/2 [9]: ~45 m
tissue glycogen depletion (Gaa knockout mice [10]; 5, 10 and 20 mg/kg IV): deplete tissue glycogen in acid α-glucosidase (Gaa) knockout mice in a dose-dependent fashion
Glycogen, median (Gaa knockout mice [10]; ATB200 5 mg/kg monotherapy, Study #1): 307 μg/mg protein
Glycogen, median (Gaa knockout mice [10]; ATB200 5 mg/kg monotherapy, overall median): 307 μg/mg protein
Glycogen, median (Gaa knockout mice [10]; ATB200 10 mg/kg monotherapy, Study #1): 259 μg/mg protein
Glycogen, median (Gaa knockout mice [10]; ATB200 10 mg/kg monotherapy, overall median): 259 μg/mg protein
Glycogen, median (Gaa knockout mice [10]; ATB200 20 mg/kg monotherapy, Study #1): 157 μg/mg protein
Glycogen, median (Gaa knockout mice [10]; ATB200 20 mg/kg monotherapy, Study #3): 195 μg/mg protein
Glycogen, median (Gaa knockout mice [10]; ATB200 20 mg/kg monotherapy, overall median): 181 μg/mg protein
adverse events [11]: generally mild and transient
infusion-associated reactions [11]: no infusion-associated reactions
serious adverse events [11]: no serious adverse events (SAEs)
glycogen reduction vs Lumizyme® 20 mg/kg (Gaa knockout mice [12]): significantly better reduction of glycogen levels in skeletal muscles than Lumizyme®
mean terminal half-life (t1/2β) [13]: 1.70 to 11.1 h
time to maximal ATB200 plasma concentration (tmax) [13]: approximately 2 hours
anti-drug antibody (ADA) incidence [14]: 100%

rhGAA activity eluted prior to addition of M6P (did not bind to the CIMPR) (CIMPR [15]): 78%
rhGAA eluted with M6P / containing M6P (CIMPR binding) (CIMPR [15]): 22%
Substance: Lumizyme®: conventional rhGAA product (alglucosidase alfa), Genzyme
AUC ([16]; 20 mg/kg dose, reported): ~2700 µg·h/mL
systemic clearance ([16]; Week 52, repeated dosing, late-stage Pompe disease, product label): 601 mL/h
half-life ([16]; product label): 2.4 h
concentration that saturates cellular receptors [7]: about 250 nM
uptake efficiency constant (Kuptake) ([7]; extrapolated, FIG. 10C): 56 nM
functional muscle strength (grip strength and wire hang tests) (Gaa KO mice): observed to decline

— patent US20250381254A1, “Augmented Acid Alpha-Glucosidase For The Treatment Of Pompe Disease” (Amicus Therapeutics, Inc., priority 2015, published 2025)
